Columns and labels:
[1] = molecular target: PR3_10_56: PR3_10 (H44A) CD33SP SS CD28TM CAAR (human); assay: cell-based or functional assay
[2] = molecular target: PR3_1_30: PR3_1_(WT) CD33SP MS CD28TM CAAR (human); assay: cell-based or functional assay
PR3_1_30: PR3_1_(WT) CD33SP MS CD28TM CAAR (human), sequence (chain, as listed by the source limits assumed): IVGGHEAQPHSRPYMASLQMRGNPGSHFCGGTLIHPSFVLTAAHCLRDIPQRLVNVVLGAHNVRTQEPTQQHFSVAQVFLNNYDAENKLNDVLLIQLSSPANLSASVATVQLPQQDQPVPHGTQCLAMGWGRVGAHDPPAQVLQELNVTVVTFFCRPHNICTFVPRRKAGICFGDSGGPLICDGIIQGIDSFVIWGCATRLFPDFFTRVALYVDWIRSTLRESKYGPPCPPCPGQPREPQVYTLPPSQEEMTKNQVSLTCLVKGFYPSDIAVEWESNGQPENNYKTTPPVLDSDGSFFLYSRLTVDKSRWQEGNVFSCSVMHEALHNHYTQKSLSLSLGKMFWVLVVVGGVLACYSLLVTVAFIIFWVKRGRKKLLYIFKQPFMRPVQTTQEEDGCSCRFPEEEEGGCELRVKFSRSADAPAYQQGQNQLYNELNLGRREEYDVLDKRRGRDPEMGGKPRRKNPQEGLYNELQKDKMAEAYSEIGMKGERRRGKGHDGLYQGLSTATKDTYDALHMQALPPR

PR3_10_56: PR3_10 (H44A) CD33SP SS CD28TM CAAR (human), sequence (chain, as listed by the source H44A H44A limits assumed): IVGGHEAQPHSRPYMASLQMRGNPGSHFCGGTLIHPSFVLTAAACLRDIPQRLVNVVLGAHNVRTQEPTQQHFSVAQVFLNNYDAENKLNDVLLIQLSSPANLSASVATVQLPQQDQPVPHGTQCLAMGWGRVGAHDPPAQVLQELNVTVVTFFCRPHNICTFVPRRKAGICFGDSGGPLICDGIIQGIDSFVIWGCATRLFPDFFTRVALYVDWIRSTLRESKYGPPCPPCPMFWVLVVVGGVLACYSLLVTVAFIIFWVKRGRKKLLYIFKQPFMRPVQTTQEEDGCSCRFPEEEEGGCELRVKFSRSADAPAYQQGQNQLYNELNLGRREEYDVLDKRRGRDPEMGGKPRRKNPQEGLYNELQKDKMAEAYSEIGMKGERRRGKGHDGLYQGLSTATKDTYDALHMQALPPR

Question: For “anti-PR3 antibody, EMD Millipore, clone MCPR3-3, catalog #MABF973”, which CAAR killing efficiency against the lowest density IgG+-CHO-S target (MCPR3-3 #4 (L)) [1] is on record?
Answer: 65%

Question: What about the CAAR killing efficiency against the lowest density IgG+-CHO-S target (MCPR3-3 #4 (L)) [2] of the same substance?
Answer: 65%

Source: patent US20250161359A1
